The target in assay [1] is His-YFP-EB3 S162E and His-CFP-EB3 S162E, full-length phospho-mimetic mutant (human) (UniProt Q9UPY8). The experiment in a line: FRET or BRET.
Assay [2] concerns the target His-YFP-EB3 and His-CFP-EB3, full-length wild type (human) (UniProt Q9UPY8). As to the kind of experiment: FRET or BRET. On the technique in general: BRET reads energy transfer from a luciferase to a nearby fluorophore.

As to “His-YFP-EB3 S162E and His-CFP-EB3 S162E, full-length phospho-mimetic mutant (from UniProt Q9UPY8 1-281) (natural protein)”, the t1/2 of chain exchange in assay [1] was determined as 1.39 h; in assay [2], 1.01 h.
Turning to “His-YFP-EB3 and His-CFP-EB3, full-length wild type (from UniProt Q9UPY8 1-281) (natural protein)”, the t1/2 of chain exchange in assay [2] is 2.66 h.

(Values after article PMC3627495.)
